Laboratory results taken from patent publication US20180186871A1 (SINGAPORE HEALTH SERVICES PTE, published 2018).

T1: human IL-11 (human, UniProt P20809 22-199)
T1 sequence (looked up): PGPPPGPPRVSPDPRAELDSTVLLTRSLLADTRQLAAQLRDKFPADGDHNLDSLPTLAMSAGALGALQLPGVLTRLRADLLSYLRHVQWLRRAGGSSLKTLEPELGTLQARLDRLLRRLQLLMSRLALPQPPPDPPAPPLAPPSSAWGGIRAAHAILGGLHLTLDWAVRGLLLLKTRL


biological target: T1, human IL-11; assay: cell-based or functional assay
Also: test concentration or dose not given here.

| Binder | MMP2 production (ng/ml), TGFB1-stimulated human atrial fibroblasts, Experiment 1 (NEG 42.7, POS 70.2) | MMP2 production (ng/ml), TGFB1-stimulated human atrial fibroblasts, Experiment 2 (NEG 36.2, POS 62.3) |
| --- | --- | --- |
| YU100-H06 (scFv, not shown: a dimerising Fc or GST) scFv: QVQLVESGGGVVQPGRSLRLSCAASGFTFSSYGMHWVRQAPGKGLEWVAVISYDGSNKYYADSVKGRFTISRDNSKNTLYLQMNSLRAEDTAVYYCAKIGATDPLDYWGQGTLVTVSSGSASAPKLEEGEFSEARIQSALTQPRSVSGSPGQSVTISCTGTSSDVGGYNYVSWYQQHPGKAPKLMIYDVTKRPSGVPDRFSGSKSGNTASLTISGLQAEDEADYYCSSYAGSYTWVFGGGTKLTVL | 52.3 ng/mL | 43.9 ng/mL |
| YU100-A11 (scFv) scFv: EVQLQQSGGGVVQPGRSLRLSCAASGFTFSSYGMHWVRQAPGKGLEWVAVISYDGSNKYYADSVKGRFTISRDNSKNTLYLQMNSLRAEDTAVYYCAKIGATDPLDYWGQGTLVTVSSGSASAPKLEEGEFSEARVQSALTQPRSVSGSPGQSVTISCTGTSSDVGGYNYVSWYQQHPGKAPKLMIYDVSKRPSGVPDRFSGSKSGNTASLTISGLQAEDEADYYCCSYAGSYTWVFGGGTKLTVL | 51.6 ng/mL | 45.7 ng/mL |
| YU100-A12 (scFv) scFv: QVQLVESGGGVVQPGRSLRLSCAASGFTFSSYGMHWVRQAPGKGLEWVAVISYDGSNKYYADSVKGRFTISRDNSKNTLYLQMNSLRAEDTAVYYCAKIGATDPLDYWGQGTLVTVSSGSASAPKLEEGEFSEARVLPVLTQPRSVSGSPGQSVTISCTGTSSDVGGYNYVSWYQQHPGKAPKLMIYDVSKRPSGVPDRFSGSKSGDTASLTISGLQAEDEADYYCSSYAGSYTWVFGGGTKLTVL | 59.5 ng/mL | 50.4 ng/mL |
| YU100-B01 (scFv) scFv: QVQLVQSGGGVVQPGRSLRLSCAASGFTFSSYGMHWVRQAPGKGLEWVAVISYDGSNKYYADSVKGRFTISRDNSKNTLYLQMNSLRAEDTAVYYCAKIGATDPLDYWGQGTLVTVSSGSASAPKLEEGEFSEARVQSALTQPRSVSGSPGQSVTISCTGTNTDVGAYNYVSWYQQYPGKAPKLIIYDVSKRPSGVPDRFSGSKSGNTASLTISGLQAEDEADYYCCSYAGSYSWVFGGGTKLTVL | 52.5 ng/mL | 40 ng/mL |
| YU100-B03 (scFv) scFv: QVQLVQSGGGVVQPGRSLRLSCAASGFTFSSYGMHWVRQAPGKGLEWVAVISYDGSNKYYADSVKGRFTISRDNSKNTLYLQMNSLRAEDTAVYYCAKIGATDPLDYWGQGTLVTVSSGSASAPKLEEGEFSEARVQSVLTQPRSVSGSPGRSVTISCTGTSSDVGGYNYVSWYQQHPGKAPKLTLYDVVKRPSGVPDRYSGSKSGNTASLTISGLQAEDEADYYCCSYAGGYTWVFGGGTKVTVV | 47.3 ng/mL | 46.8 ng/mL |
| YU100-B06 (scFv) scFv: QVQLVESGGGVVQPGRSLRLSCAASGFTFSSYGMHWVRQAPGKGLEWVAVISYDGSNKYYADSVKSRFTISRDNSKNTLYLQMNSLRAEDTAVYYCAKIGATDPLDYWGQGTLVTVSSGSASAPKLEEGEFSEARVQSALTQPASVSGSPGQSITISCTGTSSDVGGYNYVSWYQQHPGKAPKLMIYDVSKRPSGVPDRFSGSKSGNTASLTISGLQAEDEADYYCNSYAGSYTWVFGGGTKLTVL | 47.6 ng/mL | 49.6 ng/mL |
| YU100-B07 (scFv) scFv: QVQLVESGGGVVQPGRSLRLSCAASGFTFSSYGMHWVRQAPGKGLEWVAVISYDGSNKYYADSVKGRFTISRDNSKNTLYLQMNSLRAEDTAVYYCAKIGATDPLDYWGQGTLVTVSSGSASAPKLEEGEFSEARVQSALTQPRSVSGSPGQSVTMSCTGTSRDVGGYNYVSWYQHHPGKAPKLMIYDVSKRPSGVPDRFSGSKSGNTASLTISELQAEDEADYYCCSYAGSYTWVFGGGTKLTVL | 55.9 ng/mL | 47.4 ng/mL |
| YU100-E07 (scFv) scFv: QVQLQESGGGVVQPGRSLRLSCAASGFTFSSYGMHWVRQAPGKGLEWVAVISYDGSNRYYADSVKGRFAISRDNSKNTLYLQMNSLRAEDTAVYYCAKIGATDPLDYWGQGTLVTVSSGSASAPKLEEGEFSEARVQSALTQPRSVSGSPGQSVTISCTGTSSDVGGYDYVSWYQQHPGKAPELMIYDVTKRPSGVADRFSGSKSGNTASLTISGLQAEDEADYYCCSYAGRYTWVFGGGTKLTVL | 52.1 ng/mL | 46.5 ng/mL |
| YU100-E10 (scFv) scFv: QVQLVQSGGGVVQPGRSLRLSCAASGFTFSSYGMHWVRQAPGKGLEWVAVISYDGSNKYYADSVKGRFTISRDNSKNTLYLQMNSLRAEDTAVYYCAKIGATDPLDYWGQGTLVTVSSGSASAPKLEEGEFSEARVQSALTQPRSVSGSPGQSVTISCTGTSSDVGGYNYVSWYQQHPGKAPKLMIFDVSQRPSGVPDRFSASKSGNTASLTISGLQAEDEADYYCCSYAGSYTWVFGGGTKLTVL | 56.1 ng/mL | 47 ng/mL |
| YU100-E12 (scFv) scFv: QVQLVESGGGVVQPGRSLRLSCAASGFTFSSYGMHWVRQAPGKGLEWVAVISYDGSNKYYADSVKGRFTISRDNSKNTLYLQMNSLRAEDTAVYYCAKIGATDPLDYWGQGTLVTVSSGSASAPKLEEGEFSEARVQSALTQPASVSGSPGQSITISCTGTSSDVGGYNYVSWYQQHPGTAPKLMIYDVSNRPSGVSNRFSGSKSGNTASLTISGLQAEDEADYYCSSYTSSTTWVFGGGTKLTVL | 56 ng/mL | 47.9 ng/mL |
| YU100-F02 (scFv) scFv: EVQLVESGGGVVQPGRSLRLSCAASGFTFSSYGMHWVRQAPGKGLEWVAVISYDGSNKYYADSVKGRFTISRDNSKNTLYLQMNSLRAEDTAVYYCAKIGATDPLDYWGQGTLVTVSSGSASAPKLEEGEFSEARVQSALTQPRSVSGSPGQSVTISCTGTSSDVGGYNYVSWYQQHPGKAPKLMIYDVTKRPSGVPDRFSGSKSGNTASLTISGLQADDEADYYCCSYAGSYTWIFGGGTKLTVL | 51.2 ng/mL | 43.5 ng/mL |
| YU100-G01 (scFv) scFv: QVQLVQSGGGVVQPGRSLRLSCAASGFTFSSYGMHWVRQAPGKGLEWVAVISYDGSNKYYADSVKGRFTISRDNSKNTLYLQMNSLRAEDTAVYYCAKIGATDPLDYWGQGTLVTVSSGSASAPKLEEGEFSEARVQSALTQPRSVSASPGQSVTISCTGTSSDVGAYNYVSWYQQHPGKAPKLMLYDVNKRPSGVPDRFSGSKSGNTASLTISRLQAEDEADYYCCSYAGSYTWVFGGGTKLTVL | 56.6 ng/mL | 49.7 ng/mL |
| YU100-G09 (scFv) scFv: EVQLVESGGGVVQPGRSLRLSCAASGFTFSSYGMHWVRQAPGKGLEWVAVISYDGSNKYYADSVKGRFTISRDNSKNTLYLQMNSLRAEDTAVYYCAKIGATDPLDYWGQGTLVTVSSGSASAPKLEEGEFSEARVQSALTQPRSVSGSPGQSVTISCTGTISDVGGYNYVSWYQQHPGKAPKLMIYDVTKRPSGVPDRFSGSKSGNTASLTISGLQAEDEAGYYCSSYAGSYTWVFGGGTKLTVL | 59.9 ng/mL | 47.5 ng/mL |
| YU100-H05 (scFv) scFv: QVQLVESGGGVVQPGRSLRLSCAASGFTFSSYGMHWVRQAPGKGLEWVAVISYDGSNKYYADSVKGRFTISRDNSKNTLYLQMNSLRAEDTAVYYCAKIGATDPLDYWGQGTLVTVSSGSASAPKLEEGEFSEARVQAVLTQPRSVSGSPGQSITISCTGTGSNVGGYNYVSWYQQHPGQAPKLMIYDVSKRPSGVPDRFSGSKSGNTASLTISGLQAEDEADYYCCSYAGTYTWVFGGGTKLTVL | 57.1 ng/mL | 47.8 ng/mL |
| YU100-H11 (scFv, not shown: a dimerising Fc or GST) scFv: QVQLVQSGGGVVQPGRSLRLSCAASGFTFSSYGMHWVRQAPGKGLEWVAVISYDGSNKYYADSVKGRFTISRDNSKNTLYLQMNSLRAEDTAVYYCAKIGATDPLDYWGQGTLVTVSSGSASAPKLEEGEFSEARVQSALTQPASVSGSPGQSITISCTGTSSDVGGYNYVSWYQQHPGKAPKLMIYDVSNRPSGVSNRFSGSKSGNTASLTISGLQAEDEADYYCCSYAGSYTWVFGGGTKLTVL | 53.7 ng/mL | 45.5 ng/mL |
| YU112-A07 (scFv, not shown: a dimerising Fc or GST) scFv: QVQLVESGGGVVQPGRSLRLSCAASGFTFSSYGMHWVRQAPGKGLEWVAVISYDGSNKYYTDSVKGRFTISRDNSKNTLYLQMNSLRAEDTAVYYCAKIGATDPLDYWGQGTLVTVSSGSASAPKLEEGEFSEARVQSALTQPRSVSGSPGQSVTISCTGTISDVGGYNYVSWYQQHPGKAPKLMIYDVTKRPSGVPDRFSGSKSGNTASLTISGLQAEDEAGYYCSSYAGSYTWVFGGGTELTVL | 50.7 ng/mL | 45 ng/mL |
| YU112-B06 (scFv, not shown: a dimerising Fc or GST) scFv: QVQLVESGGGVVQPGRSLRLSCAASGFTFSSYGMHWVRQAPGKGLEWVAVISYDGSNKYYADSVKGRFTISRDNSKNTLYLQMNSLRAEDTAVYYCAKIGATDPLDYWGQGTLVTVSSGSASAPKLEEGEFSEARVQSALTQPASVSGSPGQSITISCTGTSSDVGGYNYVSWYQQHPGKAPKLMIYDVSNRPSGVSNRFSGSKSGNTASLTIFGLQAEDEADYYCSSYTSSSSWVFGGGTKLTVL | 49.7 ng/mL | 43.9 ng/mL |
